Test results published in patent US20250376498A1, “FUSION PROTEINS COMPRISING AN IMPROVED GLP-1 RECEPTOR AGONIST AND USES THEREOF” (Guangzhou Innogen Pharmaceutical Group Co., Ltd., priority 2022, published 2025).
Values joined by “and” are separate entries in the source; they are usually repeats but may differ in a detail not shown here. Equal entries are not always repeated.

Legend:
INS-1 cells = test: Insulin secretion from INS-1 cells; assay type: cell-based
Description: Natural GLP-1 stimulates insulin secretion from beta cells in a glucose-dependent manner. […] INS-1 cells were serum-starved and glucose-starved, then treated with different amounts of purified YN-011 in the presence of 0, 5, or 20 mM glucose as indicated.

DIO mice = test: High-fat diet-induced obese (DIO) mice; assay type: in vivo
Description: The effects of multiple administrations of YN-011 on glucose tolerance, insulin sensitivity, metabolism, and weight reduction were evaluated in high-fat diet (HFD)-induced obese mice. Male C57BL/6 mice, 5 months old (obtained from commercial sources such as Shanghai Slake Experimental Animals Co., Ltd., under standard housing conditions), were fed with an HFD (60% of total calories from fat, 20% from carbohydrates) for 6 months to establish the diet-induced obesity (DIO) mouse model. The DIO mice (weighing >50 g) were then divided into two groups (5 animals per group), with the experimental group receiving subcutaneous injections of 0.3 mg/kg of YN-011 twice a week (BIW) and the control group receiving phosphate-buffered saline (PBS) injections. The treatment was administered for 4 weeks.

NASH Rhesus monkeys [1] = test: NASH Rhesus monkeys, liver biopsy histology (NAS and fibrosis scores); assay type: in vivo; design: key to Fibrosis score: 0: No fibrosis observed; 1a: Mild perisinus fibrosis in zone 3; 1b: Moderate sinus fibrosis in zone 3; 1c: Periportal fibrosis; 2: Perisinus and periportal fibrosis; 3: Bridging fibrosis; 4: Cirrhosis; key to NAS Score: NAFLD activity score (NAS) from steatosis, inflammation, ballooning grades; conditions: for Fibrosis score / NAS Score / Steatosis score: individual animals
Description: Amount of specimens collected: ≤2 needles, each needle with a specimen length≤1.5 cm, and the total cumulative specimen length≤3 cm.
Approximately 2 cm of the collected tissue was immediately placed in 4% buffered formalin at room temperature and fixed for at least 24 hours. After appropriate modifications, dehydration, embedding, sectioning, HE staining, and Masson staining were performed.
Tissue sections were stained with H&E and Masson stains. Pathological slides were evaluated by a pathologist according to the diagnostic and treatment guidelines for non-alcoholic fatty liver disease (NAFLD) jointly drafted by the American Association for the Study of Liver Diseases (AASLD), the American College of Gastroenterology (ACG), and the American Gastroenterological Association (AGA). The diagnostic criteria can be found in Table 2 and Table 3.
After adequate fixation of the liver biopsy specimens, they were dehydrated, infiltrated with paraffin, embedded, and sectioned (5 μm) directly.
Routine deparaffinization of the sections was performed. The sections were sequentially immersed in 100% ethanol I, 100% ethanol II, 95%, 85%, and 75% ethanol for 3 minutes each. They were then rinsed with tap water for 3 minutes, stained with hematoxylin-eosin (HE) staining solution for 12 minutes, rinsed with tap water for 5 minutes, and stained with eosin Y solution (aqueous) for 3 minutes. Dehydration was carried out rapidly with 95% ethanol, followed by two rounds of dehydration with absolute ethanol for 2-5 minutes each. The sections were then cleared with xylene twice for 10 minutes each. Neutral mounting medium was applied, and microscopic examination was performed.
Routine deparaffinization of the sections was performed. The sections were stained with Weigert's iron hematoxylin for 5-7 minutes, and simultaneously, weak acid working solution was prepared by mixing distilled water and weak acid solution in a ratio of 2:1. The sections were rinsed with weak acid working solution for 1 minute. After rinsing with phosphomolybdic acid solution for 1-2 minutes, the sections were directly placed in aniline blue staining solution for 1-2 minutes, followed by rinsing with the prepared weak acid working solution for 1 minute. Dehydration was carried out rapidly with 95% ethanol, followed by two rounds of dehydration with absolute ethanol for 2-5 minutes each. The sections were then cleared with xylene twice for 10 minutes each. Neutral mounting medium was applied, and microscopic examination was performed.
The sections were observed under a microscope (with a digital imaging system), and pathological diagnosis and photography were performed. Based on the histopathological diagnosis, the HE and Masson results were scored according to the scoring criteria for non-alcoholic fatty liver disease activity score (NAS, Table 8) and liver fibrosis staging (Table 9).
(§1) Fifteen Rhesus monkeys were divided into 3 groups, with 5 monkeys in each group. They received subcutaneous injections of 0 (solvent control, placebo control group), 0.050, or 0.150 mg/kg of YN-011 once a week for 13 weeks (QW). The 0.150 mg/kg YN-011 group received adaptive dosing (0.1 mg/kg for the first dose, followed by 0.150 mg/kg for the remaining 12 doses).
To investigate whether YN-011 treatment led to histological improvements in the liver, liver biopsy specimens were collected from all Rhesus monkeys before the first injection and on day 89 after the first injection. Liver slices were stained with HE and Masson stains for histological analysis. The degrees of steatosis, inflammation, hepatocyte ballooning, and fibrosis were scored according to the standards for NAFLD activity and NASH progression.

NASH Rhesus monkeys [2] = test: NASH Rhesus monkeys, body weight, lipids, glucose, food consumption, tolerability; assay type: in vivo
Description: The in vivo pharmacological study of YN-011 was conducted in NASH Rhesus monkeys. The evaluated clinical parameters included liver lipid content assessed by MRI-PDFF %, NAFLD Activity Score (NAS), liver fibrosis stage assessed by liver histology, body weight, body mass index (BMI), blood lipid profile, fructose metabolism, other biochemical parameters, and food consumption.
The selected Rhesus monkeys were 11-23 years old, which corresponds to 30-70 years in humans. All Rhesus monkeys were males, with weights ranging from 13.63 to 22.85 kg. They had abnormal lipid metabolism for more than 2 years, MRI-PDFF % ranging from 7.8% to 11.9%, NAS scores of 3 or higher, and fibrosis scores of 0-1c within 6 months. These animals clinically met the definition of NASH.
as §1

[3] = 0.3 mg/kg sc BIW, 4 weeks, P<0.001
[4] = 50 μg/kg group, Day 89 post-injection
[5] = 150 μg/kg group, Day 89 post-injection

B1: YN-011: GLP-1 fusion protein of SEQ ID NO: 7: GLP-1 (A8G, G22E, R36G), linker peptide and IgG2/Fc domain (C222S, A330S, P331S) (protein)
chain: HGEGTFTSDVSSYLEEQAAKEFIAWLVKGGGSSGAPPPSGGGGSERKSCVECPPCPAPPVAGPSVFLFPPKPKDTLMISRTPEVTCVVVDVSHEDPEVQFNWYVDGVEVHNAKTKPREEQFNSTFRVVSVLTVVHQDWLNGKEYKCKVSNKGLPSSIEKTISKTKGQPREPQVYTLPPSREEMTKNQVSLTCLVKGFYPSDIAVEWESNGQPENNYKTTPPMLDSDGSFFLYSKLTVDKSRWQQGNVFSCSVMHEALHNHYTQKSLSLSPG
insulin secretion from beta cells (INS-1 cells; absence of glucose): did not stimulate insulin secretion
insulin secretion from beta cells (INS-1 cells; presence of 5 mM or 20 mM glucose): dose-dependently stimulated insulin secretion
UcP1 expression in BAT and epididymal WAT (DIO mice): no effect
Ucp1 expression in inguinal WAT (DIO mice): significantly upregulated
body weight (DIO mice; 0.3 mg/kg sc BIW, 4 weeks): significantly reduced
ectopic lipid accumulation and hepatic triglycerides (DIO mice; 0.3 mg/kg sc BIW, 4 weeks): significantly reduced
weight of other tissues (BAT, inguinal WAT, pancreas, calf muscle) (DIO mice; 0.3 mg/kg sc BIW, 4 weeks): no impact
AST levels (DIO mice; 0.3 mg/kg sc BIW, 4 weeks, Ctrl 145.6±16.8, P<0.05): 72.20±19.29
serum ALT levels (DIO mice; 0.3 mg/kg sc BIW, 4 weeks, Ctrl 153.4±18.7, P<0.01): 34.2±7.7
reduction in non-esterified fatty acids (NEFA) (DIO mice; [3]): 57%
reduction in total cholesterol (TC) (DIO mice; [3]): 30%
reduction in triglycerides (TG) (DIO mice; [3]): 68%
visceral fat, particularly epididymal fat content (DIO mice; 0.3 mg/kg sc BIW, 4 weeks, vs PBS control): significant decrease
blood glucose (DIO mice; after 4 weeks of treatment, glucose fluctuation / IPGTT, P<0.01): significantly reduced
insulin sensitivity (DIO mice; after 4 weeks of treatment, insulin tolerance, P<0.01): improved insulin sensitivity
core body temperature (DIO mice; at room temperature): higher core body temperature
VO2, VCO2 and EE normalized to body weight (DIO mice; during the night): significantly increased
food consumption (DIO mice; multiple administrations vs control): significant decrease
metabolic rate (VO2 and VCO2) and energy expenditure (EE) (DIO mice; not normalized, without statistical significance): increasing trend
Fibrosis score (NASH Rhesus monkeys [1]; 50 μg/kg group, Baseline): 1a (2×) and 1c (2×) and 0-1a
NAS Score (NASH Rhesus monkeys [1]; 50 μg/kg group, Baseline): 3 (2×) and 4 (3×)
Steatosis score (NASH Rhesus monkeys [1]; 50 μg/kg group, Baseline): 1 (5%~33%) (4×) and 2 (34%~66%)
Fibrosis score (NASH Rhesus monkeys [1]; [4]): 1a (2×) and 0~1a (3×)
NAS Score (NASH Rhesus monkeys [1]; [4]): 2 (3×) and 1 (2×)
Steatosis score (NASH Rhesus monkeys [1]; [4]): 0 (<5%) (4×) and 1 (5%~33%)
Fibrosis score (NASH Rhesus monkeys [1]; 150 μg/kg group, Baseline): 1a (2×) and 1b (2×) and 0~1a
NAS Score (NASH Rhesus monkeys [1]; 150 μg/kg group, Baseline): 3 (2×) and 4 (3×)
Steatosis score (NASH Rhesus monkeys [1]; 150 μg/kg group, Baseline): 2 (34%~66%) (4×) and 3 (>66%)
Fibrosis score (NASH Rhesus monkeys [1]; [5]): 1a (2×) and 1b and 0~1a (2×)
NAS Score (NASH Rhesus monkeys [1]; [5]): 1 (3×) and 2 (2×)
Steatosis score (NASH Rhesus monkeys [1]; [5]): 1 (5%~33%) (3×) and 0 (<5%) (2×)
NAS and liver fibrosis scores (liver biopsy) (NASH Rhesus monkeys [1]; NASH Rhesus monkeys treated with YN-011): reduction in both NAS and liver fibrosis scores
food consumption (NASH Rhesus monkeys [2]): dose-dependent reduction
high-density lipoprotein cholesterol (HDL-c) compared to baseline (NASH Rhesus monkeys [2]): decreasing trend
plasma fasting plasma glucose (FPG) levels, YN-011 vs placebo (NASH Rhesus monkeys [2]): no significant differences
reduction of plasma fructosamine (FRA) (NASH Rhesus monkeys [2]; 150 μg/kg, after 12 weeks of treatment): 4.3%
adverse reactions (NASH Rhesus monkeys [2]; 0.050 or 0.150 mg/kg sc QW, 13 weeks): No significant adverse reactions
body weight and BMI compared to baseline (NASH Rhesus monkeys [2]; Day 7-Day 84): significant decrease
serum LDL-c, total cholesterol (TC) and total triglycerides (TG) (NASH Rhesus monkeys [2]; various time points during treatment): significantly reduced
